According to the supplement of paper PMC9170038:

Test system: MS2 coat protein
Assay: apparent KD of MS2 coat protein; higher = weaker reporter binding
Conditions: Eterna round: R107; input ligand: arginine 13.2 mM
Protocol: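 RNA-MaP round R107: designed RNA switches with theophylline, tryptophan, arginine or FMN aptamers are transcribed on-chip within common flanks. They are titrated with SNAP-549-labelled MS2 coat protein in RNA-MaP buffer (100 mM Tris pH 7.5, 80 mM KCl, 4 mM MgCl2), without ligand or with the indicated ligand. Median apparent KD per design.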

Sequence	apparent KD of MS2 coat protein [nM]
UUCAGACAUGAGGAUCACCCAUGUACUGAAGGAGCGGAUAAAUAUCCAGGUAGGUCGCAGUAUUGAGGGUCUACUUCCAGUCUUU [Reoruser]	8.42

Same assay, conditions: Eterna round: R107; input ligand: none

Sequence	apparent KD of MS2 coat protein [nM]
GGCGUCGGGCGAAGGAGCGUGAAGACAUGAGGAUCACCCAUGUAGAGGCCCGAACAGGGUUCGCAGGUAGGUCGCGCGCGGUGCC [#1 Same State - Arginine B Attempt #6 (HarryS)]	13.6
ACAUGAGGAUCACCCAUGUCAGGGCACGAUACCAGCUGAUCCGAUGGCCCUUGGCAGCGUUACGUGUGGUCAUGAGGAUCACCCG [pjbmullin]	59.3
ACAUGAGGAUCACCCAUGUAAUGGCACGAUACCAGCUGAUCCCGUGGCCCUUGGCAGCGUCCGGUGUGGUCCGCCGGGUUGGACC [HHHMULLIN]	26
AAUAGCAUGAGGAUCACCCAUGUAAAAGAUACCAGAGUGAUGAUCCUCCCUUGGCAGCUUAACGCUGAUUGAUUACAAUCAGCGA	44.9
GGUACAUGAGGAUCACCCAUGUAUGCGAGCCGAGGACCGGUACGGCCGCCACUCGCUUAACAUGAGGAUCACCCAUGUUUCUCGG [SSTA DOUBLE!!! :-D #15]	94.9
AAUUGGGUUGGUGAGGUGGUUGGAGGCGAUACCAGCGUGGAAACACGCCCUUGGCAGCGCCAGGACAUGAGGAUCACCCAUGUAA [Praha]	260
UGGGUCGGAUGAGUAAAUUGUCCGACGUAUCGAGGACCGGUACGGCCGCCACUCGGUUGUACAUGAGGAUCACCCAUGUCAGGGU [#1 Same State - Tryptophan A Attempt #16 (HarryS)]	436
AUAUUUAACGGAAGGAGCGCGGAUAAUAAAGUGGGUAAACAUGAGGAUCACCCAUGUAAACCGCAGGUAGGUCGCCGAUAUAUAU [AstrosEXyARgB#7]	63.6
UCGCCCGGGUCGGCCGCCACUGAGGUGAUGUGACAUGAGGAUCACCCAUGUUGUCAUGUGGCACAUAGGACCGGGACCCGGGCGA [Exclusion - Tryptophan B Attempt #3 (HarryS)]	26.3
UGUAUGUGAUCUGAUACCAGAGUGACGCGAAAGCGAUAACCUGAGGAUCACCCUGGUAAACUCCCUUGGCAGCAGAUCGCAUACU	75.3
ACACAUGACAGAAGGAGCGGAAUGAACACACAUGAGGAUCACCCAUGUUUUUUUUGUGUUUUCCAGGUAGGUCGCUGACAUGAGG [#20 Same State - Arginine B]	8.99
GUAUAGUCUCGAAGGAGCGUCACAUGAGGAUCACCCAUGUACAUGAGGAUCACCCAUGUGUGGCAGGUAGGUCGCGAGCUAUACC [Exclusion Arginine B GF8]	265
AUGGCGUUGGUGAGGCGGUUUAAUGGCGAUACCAGCGUGGAAACACGCCCUUGGCAGCGCCAAAACAUGAGGAUCACCCAUGUUA [Budejovice]	13.4
UGGCGAGAAGGAAGGAGCGUCAGCUGAGUUACAUGAGGAUCACCCAUGUUUUACAUUGUGUGACAGGUAGGUCGCCUUCUGCCCU [SS-ArgB20]	14
UAUCCACAUGAGGAUCACCCAUGUUAGGAAGGAGCGGUGAAUGAACCAGGUAGGUCGCCUAGCUGAGGACCGUCGAUGGAUUCGU [Exclusion - Arginine A (Freestyle 16)]	27.3
AUACAUGAGGAUCACCCAUGUGAUGGCCGGCGAGGACCGGUACGGCCGCCACUCGUGAUCCGUCCCGAGAGCAAAGCUCUCGACA [Raatala]	53.7
UGGGUAGCAUAGAUUGAUAGUUAAACUGAAGGAGCGAGAAUAAUCUCAGGUAGGUCGCAGACAUGAGGAUCACCCAUGUAGAUGG [Same State Arginine A GF16]	122
AAAUAAAUACAUGAGGAUCACCCAUGUGAAGGAGCGCCCGUUAGGGCAGGUAGGUCGCACAUGAACUCCAAAGUGCAAAAGCACA [ArgEX 17 #OpenEnded]	21.5
UUCAGACAUGAGGAUCACCCAUGUACUGAAGGAGCGGAUAAAUAUCCAGGUAGGUCGCAGUAUUGAGGGUCUACUUCCAGUCUUU [Reoruser]	9.48

Same assay, conditions: Eterna round: R107; input ligand: theophylline 20 uM

Sequence	apparent KD of MS2 coat protein [nM]
GGCGUCGGGCGAAGGAGCGUGAAGACAUGAGGAUCACCCAUGUAGAGGCCCGAACAGGGUUCGCAGGUAGGUCGCGCGCGGUGCC [#1 Same State - Arginine B Attempt #6 (HarryS)]	24.7
GCAUCCUAGUCGGCCGCCACUGCAUGUAGUUUUGCUACAUGGAAACAUGAGGAUCACCCAUGUAGCAGGACCGGGACUAGGAUGC [(Trp1)-(TM)''-(TM)'-(Ms2)-(Trp2)_Design7]	36.2
AAGCGGGCGACGGCCGCCACUUGCCUGUAAUUAGAGAAGGCACAUGAGGAUCACCCAUGUCCCGCAAGGACCGGGUUGCCUCACU [Ditiraorce]	484
AAGGUGAUCCCAGAUACCAGCCUAACAUGAGGAUCACCCAUGUUUGGGACGAAAGUCCCAGGCCCUUGGCAGCUGGGUUGCCAAG [SSTheo B #17]	131
ACAUGAGGAUCACCCAUGUCAGGGCACGAUACCAGCUGAUCCGAUGGCCCUUGGCAGCGUUACGUGUGGUCAUGAGGAUCACCCG [pjbmullin]	101
CGCAACAUGAGGAUCACCCAUGUAAUGACGCGAGGACCGGUACGGCCGCCACUCGCCUGCCAAUGAGCGCAUGCGGCCUGGGUAU [Exclusion Tryp A GF7]	16.1
GUUAUGGACCUGGAUACCAGCUGGUACAAGGGCGGUCUACAUGAGGAUCACCCAUGUGUCAGCCCUUGGCAGCCAGCAACCGGCA [Teraus]	12.5
AUACAUGAGGAUCACCCAUGUGAUGGCCGGCGAGGACCGGUACGGCCGCCACUCGUGAUCCGUCCUGAGAGCAAAGCCCUCAGCA [Onedti]	287
CAACUGCUUGAGCUUACUUAUUGGACUUCCCGAGGACCGGUACGGCCGCCACUCGCAGGGACACAUGAGGAUCACCCAUGUAAAG [theeternabot_exclusion_MS2_Trp_A_42]	21.1
ACAUGAGGAUCACCCAUGUAAUGGCACGAUACCAGCUGAUCCCGUGGCCCUUGGCAGCGUCCGGUGUGGUCCGCCGGGUUGGACC [HHHMULLIN]	49.1
AAUAGCAUGAGGAUCACCCAUGUAAAAGAUACCAGAGUGAUGAUCCUCCCUUGGCAGCUUAACGCUGAUUGAUUACAAUCAGCGA	97.8
GUCAGUAGAACAGAUACCAGUCAAAAGCUGUGAUCUCAUAACAUGAGGAUCACCCAUGUUGACCCUUGGCAGCUGUGGGCGAGGG [#19 Exclusion-TheophyllineB]	29.1
GGUACAUGAGGAUCACCCAUGUAUGCGAGCCGAGGACCGGUACGGCCGCCACUCGCUUAACAUGAGGAUCACCCAUGUUUCUCGG [SSTA DOUBLE!!! :-D #15]	157
GCCAAAAUACCCGAUACCAGUAUUAAUAGCACAACCUCACACAUGAGGAUCACCCAUGUAUACCCUUGGCAGCGGCCUAACAUAA [theeternabot_exclusion_MS2_Theo_B_49]	55.3
AAUUGGGUUGGUGAGGUGGUUGGAGGCGAUACCAGCGUGGAAACACGCCCUUGGCAGCGCCAGGACAUGAGGAUCACCCAUGUAA [Praha]	486
UACAUACAUGAGGAUCACCCAUGUUGCGAUACCAGCGAAAGAGACCGCCCUUGGCAGCGCUCAUUUAGUUCCAUUCUUGAUCGAA [theeternabot_sameState_MS2_Theo_A_4]	23.7
CCUAUGCAGUCGGCCGCCACUGAACAUGAGGAUCACCCAUGUUAUUAUAAAUAUGGUCCUAAAAUCAGGACCGGGACUGUAUAGG [Ex Tryptophan B 8]	67.9
UGGGUCGGAUGAGUAAAUUGUCCGACGUAUCGAGGACCGGUACGGCCGCCACUCGGUUGUACAUGAGGAUCACCCAUGUCAGGGU [#1 Same State - Tryptophan A Attempt #16 (HarryS)]	351
